Data on 25 molecules can be found in US20230192896A1 (BIOVERATIV THERAPEUTICS, published 2023).

Test [1] addresses T1, free FIXa (activated Factor IX) (human, UniProt P00740 47-191; P00740 227-461).
T1 construct: BLI antigen bought from Haematologic Technologies (HCIXA-0050); also called factor IXa
In words: BLI; class meaning: paragraph 914. In general terms: Biolayer interferometry detects binding as a change in optical thickness at a sensor tip.

In a further test the target is T2, FIXa-SM (FIXa+EGR-CMK) (human, UniProt P00740 47-191; P00740 227-461, EGR-CMK (L-Glu-Gly-Arg chloromethyl ketone) covalently bound to the active site).
T2 construct: BLI antigen bought from Haematologic Technologies (HCIXA-EGR); also called FIXa with substrate mimic
The test can be described thus: BLI; class meaning: paragraph 914.

Test [2] has as its target T1, free FIXa (activated Factor IX). The test can be described thus: yeast display selection and BLI as in Examples 1 and 5.

Substitutions are numbered along the chain they refer to.

B1: BIIB-9-625 (antibody, V domains shown)
VH: QLQLQESGPGLVKPSETLSLTCTVSGGSISSSSYAWGWIRQPPGKGLEWIGSIYYSGSTYYNPSLKSRVTISVDTSKNQFSLKLSSVTAADTAVYYCARDRGWYTEVLDIWGQGTMVTVSS
VL: DIQMTQSPSSLSASVGDRVTITCRASQSISSYLNWYQQKPGKAPKLLIYAASSLQSGVPSRFSGSGSGTDFTLTISSLQPEDFATYYCQQSDTDPPTFGGGTKVEIK
notes: IgG
With B1, the binding result (in test [1]; with FIXa-SM (FIXa+EGR-CMK)) was “binds” throughout.

B2: BIIB-9-1281 (antibody, V domains shown)
VH: QVQLQQWGAGLLKPSETLSLTCAVYGGSFSGYYWSWIRQPPGKGLEWIGEIDHSGSTNYNPSLKSRVTISVDTSKNQFSLKLSSVTAADTAVYYCARTTRSKYYGMDVWGQGTMVTVSS
VL: B1 VL with S10T, Y32W, N34A, A50K, Q55E, S91A, D92I, T93S, D94L, P96I
notes: IgG
Turning to B2, the binding result (in test [1]; with FIXa-SM (FIXa+EGR-CMK)) was “binds” throughout.

B3: BIIB-9-1269 (antibody, V domains shown)
VH: QVQLVQSGAEVKKPGASVKVSCKASGYTFTSYYMHWVRQAPGQGLEWMGIINPSGGSTSYAQKFQGRVTMTRDTSTSTVYMELSSLRSEDTAVYYCARDRGQYYHFDLWGRGTLVTVSS
VL: B1 VL with L11V, T20A, S28G, Y32W, N34A, S91A, D92S, T93S, D94F, P96F
notes: IgG
Turning to B3, the binding result (in test [1]; with FIXa-SM (FIXa+EGR-CMK)) was “binds” in each case.

B4: BIIB-9-1272 (antibody, V domains shown)
VH: QVQLVQSGAEVKKPGASVKVSCKASGYTFTSYYMHWVRQAPGQGLEWMGIINPSGGSTSYAQKFQGRVTMTRDTSTSTVYMELSSLRSEDTAVYYCARDTGGYAFDIWGQGTLVTVSS
VL: B1 VL with L11V, S28G, Y32W, N34A, S91A, D92S, T93S, D94F, P96F
notes: IgG
In the case of B4, the binding result (in test [1]; in the test with FIXa-SM (FIXa+EGR-CMK)) was “binds” each time.

B5: BIIB-9-1283 (antibody, V domains shown)
VH: QVQLVQSGAEVKKPGASVKVSCKASGYTFTSYYMVWVRQAPGQGLEWMGIINPSGGSTSYAQKFQGRVTMTRDTSTSTVYMELSSLRSEDTAVYYCARVPTYRYSYLAFDIWGQGTMVTVSS
VL: B1 VL with L11V, S28G, Y32W, N34A, S91A, D92S, T93S, D94F
notes: IgG
Turning to B5, the binding result (in test [1]; with FIXa-SM (FIXa+EGR-CMK)) was “binds” throughout.

B6: BIIB-9-1276 (antibody, V domains shown)
VH: B1 VH with A35Y, R101V, W103R, Y104T, T105Y, V107L, L108F
VL: B1 VL with L11V, S28G, Y32W, N34A, S91G, D92N, T93S, D94F, P96I
notes: IgG
Regarding B6, the binding result (in test [1]; with FIXa-SM (FIXa+EGR-CMK)) was “binds” each time.

B7: BIIB-9-1265 (antibody, V domains shown)
VH: B1 VH with A35Y, R101G, G102R, W103H, T105Y, V107L, L108F, I110Y, M116L
VL: B1 VL with L11V, S28G, Y32W, N34A, S91G, D92N, T93S, D94F, P96I
notes: IgG
For B7, the binding result (in test [1]; in the test with FIXa-SM (FIXa+EGR-CMK)) was “binds” in each case.

B8: BIIB-9-1274 (antibody, V domains shown)
VH: B4 VH
VL: B1 VL with L11V, S28G, Y32W, N34A, S91A, D92N, T93S, D94F, P96F
notes: IgG
Consider B8, for which the binding result (in test [1]; with FIXa-SM (FIXa+EGR-CMK)) was “binds” throughout.

B9: BIIB-9-1279 (antibody, V domains shown)
VH: QVQLVQSGAEVKKPGASVKVSCKASGYTFTSYYMHWVRQAPGQGLEWMGIINPSGGSTSYAQKFQGRVTMTRDTSTSTVYMELSSLRSEDTAVYYCARGPTDSSGYLDMDVWGKGTTVTVSS
VL: B1 VL with L11V, S28G, Y32W, N34A, S91A, D92S, T93S, D94F
notes: IgG
As for B9, the binding result (in test [1]; with FIXa-SM (FIXa+EGR-CMK)) was “binds” in each case.

B10: BIIB-9-1264 (antibody, V domains shown)
VH: QVQLVQSGAEVKKPGASVKVSCKASGYTFTSYYMHWVRQAPGQGLEWMGIINPSGGSTSYAQKFQGRVTMTRDTSTSTVYMELSSLRSEDTAVYYCARDGDSSVYAFDYWGQGTLVTVSS
VL: DIQMTQSPSSLSASVGDRVTITCQASQDITNYLNWYQQKPGKAPKLLIYDASNLETGVPSRFSGSGSGTDFTFTISSLQPEDIATYYCQQVDDYPFTFGGGTKVEIK
notes: IgG
As to B10, the binding result (in test [1]; with FIXa-SM (FIXa+EGR-CMK)) was “binds” each time.

B11: BIIB-9-1267 (antibody, V domains shown)
VH: B10 VH with G100H, D101G, S102W, S103A, V104I, A106G, F107M, Y109V, L115T
VL: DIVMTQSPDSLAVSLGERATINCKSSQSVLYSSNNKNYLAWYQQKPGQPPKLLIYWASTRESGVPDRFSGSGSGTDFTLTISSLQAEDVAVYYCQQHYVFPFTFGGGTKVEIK
notes: IgG
With B11, the binding result (in test [1]; with FIXa-SM (FIXa+EGR-CMK)) was “binds” in each case.

B12: BIIB-9-1282 (antibody, V domains shown)
VH: B5 VH
VL: EIVMTQSPATLSVSPGERATLSCRASQSVSSNLAWYQQKPGQAPRLLIYGASTRATGIPARFSGSGSGTEFTLTISSLQSEDFAVYYCQQHNHLPITFGGGTKVEIK
notes: IgG
For the molecule B12, the binding result (in test [1]; with FIXa-SM (FIXa+EGR-CMK)) was “binds” each time.

B13: BIIB-9-1285 (antibody, V domains shown)
VH: B5 VH
VL: B12 VL with H91A, N92S, H93N, L94F, I96P
notes: IgG
As to B13, the binding result (in test [1]; in the test with FIXa-SM (FIXa+EGR-CMK)) was “binds” in each case.

B14: BIIB-9-1284 (antibody, V domains shown)
VH: B5 VH
VL: B12 VL with M4L, S30G
notes: IgG
With B14, the binding result (in test [1]; with FIXa-SM (FIXa+EGR-CMK)) was “binds” throughout.

B15: BIIB-9-1278 (antibody, V domains shown)
VH: B5 VH with V99G, T101G, Y102E, R103L, Y104G, S105Y
VL: B12 VL with N92A, H93N, L94F, I96P
notes: IgG
Turning to B15, the binding result (in test [1]; in the test with FIXa-SM (FIXa+EGR-CMK)) was “binds” each time.

B16: BIIB-9-1287 (antibody, V domains shown)
VH: QLQLQESGPGLVKPSETLSLTCTVSGGSISSSDYYWGWIRQPPGKGLEWIGSIYYSGSTYYNPSLKSRVTISVDTSKNQFSLKLSSVTAADTAVYYCARSPRHKVRGPNWFDPWGQGTLVTVSS
VL: EIVLTQSPGTLSLSPGERATLSCRASQSVSSSYLAWYQQKPGQAPRLLIYGASSRATGIPDRFSGSGSGTDFTLTISRLEPEDFAVYYCQQYHLHPTFGGGTKVEIK
notes: IgG
As to B16, the binding result (in test [1]; with FIXa-SM (FIXa+EGR-CMK)) was “binds” each time.

B17: BIIB-9-1268 (antibody, V domains shown)
VH: B3 VH with R100P, G101P, Q102S, Y103W, H105V, L108I, R111Q, L114M
VL: EIVMTQSPATLSLSPGERATLSCRASQSVSSYLAWYQQKPGQAPRLLIYDASNRATGIPARFSGSGSGTDFTLTISSLEPEDFAVYYCQQATVWPFTFGGGTKVEIK
notes: IgG
As for B17, the binding result (in test [1]; with FIXa-SM (FIXa+EGR-CMK)) was “binds” in each case.

B18: BIIB-9-1270 (antibody, V domains shown)
VH: B4 VH
VL: B17 VL with M4L, A91S, T92A, V93D, W94F
notes: IgG
On to B18, for which the binding result (in test [1]; with FIXa-SM (FIXa+EGR-CMK)) was “binds” throughout.

B19: BIIB-9-1277 (antibody, V domains shown)
VH: QVQLVQSGAEVKKPGASVKVSCKASGYTFTSYYMHWVRQAPGQGLEWMGIINPSGGSTSYAQKFQGRVTMTRDTSTSTVYMELSSLRSEDTAVYYCARGGTGYYYGSGSRDGYHYYYGMDVWGQGTTVTVSS
VL: B17 VL with L13V, F83L, A91S, T92A, V93N, F96P
notes: IgG
Turning to B19, the binding result (in test [1]; in the test with FIXa-SM (FIXa+EGR-CMK)) was “binds” in each case.

B20: BIIB-9-1273 (antibody, V domains shown)
VH: B4 VH
VL: B17 VL with M4L, S7Y, A91S, T92A, V93N, W94F
notes: IgG
B20: the binding result (in test [1]; in the test with FIXa-SM (FIXa+EGR-CMK)) was “binds” in each case.

B21: BIIB-9-1271 (antibody, V domains shown)
VH: B4 VH
VL: B12 VL with E70D, S80P, V85T, H91G, N92F, H93S, L94F, I96F
notes: IgG
As for B21, the binding result (in test [1]; with FIXa-SM (FIXa+EGR-CMK)) was “binds” each time.

B22: BIIB-9-3595 (antibody, V domains shown)
VH: EVQLVESGGGLVKPGGSLRLSCAASGFTFSSYSMNWVRQAPGKGLEWVSSISSSSSYIYYADSVKGRFTISRDNAKNSLYLQMNSLRAEDTAVYYCARDLGGYAGYYGMDVWGQGTTVTVSS
VL: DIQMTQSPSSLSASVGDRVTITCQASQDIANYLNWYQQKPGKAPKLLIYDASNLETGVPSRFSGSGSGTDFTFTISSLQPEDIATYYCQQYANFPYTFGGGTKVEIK
With B22, the binding result in test [2] is listed as “binds”.

B23: BIIB-9-3604 (antibody, V domains shown)
VH: B22 VH with S33D, N35V, S54G, S55D, L100V
VL: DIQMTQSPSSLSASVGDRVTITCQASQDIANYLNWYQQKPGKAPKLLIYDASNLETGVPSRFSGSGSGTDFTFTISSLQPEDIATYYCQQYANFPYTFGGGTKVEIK
Consider B23, for which the binding result in test [2] was “binds”.

B24: BIIB-9-3601 (antibody, V domains shown)
VH: B22 VH with Y32F, S54A, S55G, L100V
VL: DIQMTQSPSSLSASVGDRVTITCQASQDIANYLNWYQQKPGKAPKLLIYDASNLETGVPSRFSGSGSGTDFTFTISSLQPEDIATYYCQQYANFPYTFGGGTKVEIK
Consider B24, for which the binding result in test [2] was “binds”.

B25: BIIB-9-470 (antibody, V domains shown)
VH: EVQLVESGGGLVQPGGSLRLSCAASGFTFSSYWMSWVRQAPGKGLEWVANIKQDGSEKYYVDSVKGRFTISRDNAKNSLYLQMNSLRAEDTAVYYCARDAGIAWALDYWGQGTLVTVS
VL: DIQMTQSPSTLSASVGDRVTITCRASQSISSWLAWYQQKPGKAPKLLIYKASSLESGVPSRFSGSGSGTEFTLTISSLQPDDFATYYCQHPHSWTFGGGTKVEIK
notes: IgG
Consider B25, for which the binding result (in test [1]; with FIXa-SM (FIXa+EGR-CMK)) was “binds” each time.
